By EC50 is commonly meant the concentration needed to bring the measured effect to its halfway point.

This experiment addresses CD47 (human) (UniProt Q08722). Description: cell binding (FACS); PC-3 cells. The following applies: Fc fusion.

On to SIRPαD1-Fc, for which the EC50 stood at 0.58 mg/L.

(Values after patent publication US20210388043A1.)
